Measurements as given in publication PMC9812531 (Nature structural & molecular biology, 2021).
Like-named read-outs stand apart in the source and are kept apart here. One block for each binder: values may come before it.

Columns and labels:
Test in all cases: cryo-EM structure
human SPTLC2 = biological target: T1, human SPTLC2 (human, UniProt O15270 1-562, pyridoxal 5'-phosphate (PLP) in aldimine linkage to Lys379)
T1 sequence (looked up): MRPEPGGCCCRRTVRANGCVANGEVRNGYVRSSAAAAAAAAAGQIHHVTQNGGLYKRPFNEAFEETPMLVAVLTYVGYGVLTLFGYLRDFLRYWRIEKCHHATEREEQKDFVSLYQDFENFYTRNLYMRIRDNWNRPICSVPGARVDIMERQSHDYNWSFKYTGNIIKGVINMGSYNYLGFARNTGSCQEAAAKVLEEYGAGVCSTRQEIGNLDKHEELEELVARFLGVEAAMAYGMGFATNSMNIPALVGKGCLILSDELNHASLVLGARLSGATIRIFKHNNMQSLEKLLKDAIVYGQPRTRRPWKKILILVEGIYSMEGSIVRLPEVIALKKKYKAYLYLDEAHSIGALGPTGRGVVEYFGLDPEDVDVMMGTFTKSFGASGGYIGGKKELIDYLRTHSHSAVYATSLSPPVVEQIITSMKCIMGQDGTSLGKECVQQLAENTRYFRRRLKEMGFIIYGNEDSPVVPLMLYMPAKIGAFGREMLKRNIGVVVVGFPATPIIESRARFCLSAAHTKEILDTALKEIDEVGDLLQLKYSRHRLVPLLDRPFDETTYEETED

cryo-EM structure [1] = biological target: the molecule itself
cryo-EM structure [2] = biological target: the molecule itself; remark: listed apart in the source

- stoichiometry N (human SPTLC2): 1
B1: human ssSPTa (natural protein)
chain: MAGMALARAWKQMSWFYYQYLLVTALYMLEPWERTVFNSMLVSIVGMALYTGYVFMPQHIMAILHYFEIVQ

- stoichiometry N (human SPTLC2): 1
B2: human SPTLC1 (natural protein)
chain: MATATEQWVLVEMVQALYEAPAYHLILEGILILWIIRLLFSKTYKLQERSDLTVKEKEELIEEWQPEPLVPPVPKDHPALNYNIVSGPPSHKTVVNGKECINFASFNFLGLLDNPRVKAAALASLKKYGVGTCGPRGFYGTFDVHLDLEDRLAKFMKTEEAIIYSYGFATIASAIPAYSKRGDIVFVDRAACFAIQKGLQASRSDIKLFKHNDMADLERLLKEQEIEDQKNPRKARVTRRFIVVEGLYMNTGTICPLPELVKLKYKYKARIFLEESLSFGVLGEHGRGVTEHYGINIDDIDLISANMENALASIGGFCCGRSFVIDHQRLSGQGYCFSASLPPLLAAAAIEALNIMEENPGIFAVLKEKCGQIHKALQGISGLKVVGESLSPAFHLQLEESTGSREQDVRLLQEIVDQCMNRSIALTQARYLEKEEKCLPPPSIRVVVTVEQTEEELERAASTIKEVAQAVLL
- binding result (cryo-EM structure [1]): binds

B3: human SPT-ORMDL3 complex (SPTLC1-SPTLC2-ssSPTa-ORMDL3), one protomer (complex)
chain 1: MATATEQWVLVEMVQALYEAPAYHLILEGILILWIIRLLFSKTYKLQERSDLTVKEKEELIEEWQPEPLVPPVPKDHPALNYNIVSGPPSHKTVVNGKECINFASFNFLGLLDNPRVKAAALASLKKYGVGTCGPRGFYGTFDVHLDLEDRLAKFMKTEEAIIYSYGFATIASAIPAYSKRGDIVFVDRAACFAIQKGLQASRSDIKLFKHNDMADLERLLKEQEIEDQKNPRKARVTRRFIVVEGLYMNTGTICPLPELVKLKYKYKARIFLEESLSFGVLGEHGRGVTEHYGINIDDIDLISANMENALASIGGFCCGRSFVIDHQRLSGQGYCFSASLPPLLAAAAIEALNIMEENPGIFAVLKEKCGQIHKALQGISGLKVVGESLSPAFHLQLEESTGSREQDVRLLQEIVDQCMNRSIALTQARYLEKEEKCLPPPSIRVVVTVEQTEEELERAASTIKEVAQAVLL
chain 2: MRPEPGGCCCRRTVRANGCVANGEVRNGYVRSSAAAAAAAAAGQIHHVTQNGGLYKRPFNEAFEETPMLVAVLTYVGYGVLTLFGYLRDFLRYWRIEKCHHATEREEQKDFVSLYQDFENFYTRNLYMRIRDNWNRPICSVPGARVDIMERQSHDYNWSFKYTGNIIKGVINMGSYNYLGFARNTGSCQEAAAKVLEEYGAGVCSTRQEIGNLDKHEELEELVARFLGVEAAMAYGMGFATNSMNIPALVGKGCLILSDELNHASLVLGARLSGATIRIFKHNNMQSLEKLLKDAIVYGQPRTRRPWKKILILVEGIYSMEGSIVRLPEVIALKKKYKAYLYLDEAHSIGALGPTGRGVVEYFGLDPEDVDVMMGTFTKSFGASGGYIGGKKELIDYLRTHSHSAVYATSLSPPVVEQIITSMKCIMGQDGTSLGKECVQQLAENTRYFRRRLKEMGFIIYGNEDSPVVPLMLYMPAKIGAFGREMLKRNIGVVVVGFPATPIIESRARFCLSAAHTKEILDTALKEIDEVGDLLQLKYSRHRLVPLLDRPFDETTYEETED
chain 3: MAGMALARAWKQMSWFYYQYLLVTALYMLEPWERTVFNSMLVSIVGMALYTGYVFMPQHIMAILHYFEIVQ
chain 4: MNVGTAHSEVNPNTRVMNSRGIWLSYVLAIGLLHIVLLSIPFVSVPVVWTLTNLIHNMGMYIFLHTVKGTPFETPDQGKARLLTHWEQMDYGVQFTASRKFLTITPIVLYFLTSFYTKYDQIHFVLNTVSLMSVLIPKLPQLHGVRIFGINKY
modifications: pyridoxal 5'-phosphate (PLP) in aldimine linkage to Lys379
- stoichiometry N (cryo-EM structure [1]): 2

B4: human SPT complex (SPTLC1-SPTLC2-ssSPTa), one protomer (complex)
chain 1: MATATEQWVLVEMVQALYEAPAYHLILEGILILWIIRLLFSKTYKLQERSDLTVKEKEELIEEWQPEPLVPPVPKDHPALNYNIVSGPPSHKTVVNGKECINFASFNFLGLLDNPRVKAAALASLKKYGVGTCGPRGFYGTFDVHLDLEDRLAKFMKTEEAIIYSYGFATIASAIPAYSKRGDIVFVDRAACFAIQKGLQASRSDIKLFKHNDMADLERLLKEQEIEDQKNPRKARVTRRFIVVEGLYMNTGTICPLPELVKLKYKYKARIFLEESLSFGVLGEHGRGVTEHYGINIDDIDLISANMENALASIGGFCCGRSFVIDHQRLSGQGYCFSASLPPLLAAAAIEALNIMEENPGIFAVLKEKCGQIHKALQGISGLKVVGESLSPAFHLQLEESTGSREQDVRLLQEIVDQCMNRSIALTQARYLEKEEKCLPPPSIRVVVTVEQTEEELERAASTIKEVAQAVLL
chain 2: MRPEPGGCCCRRTVRANGCVANGEVRNGYVRSSAAAAAAAAAGQIHHVTQNGGLYKRPFNEAFEETPMLVAVLTYVGYGVLTLFGYLRDFLRYWRIEKCHHATEREEQKDFVSLYQDFENFYTRNLYMRIRDNWNRPICSVPGARVDIMERQSHDYNWSFKYTGNIIKGVINMGSYNYLGFARNTGSCQEAAAKVLEEYGAGVCSTRQEIGNLDKHEELEELVARFLGVEAAMAYGMGFATNSMNIPALVGKGCLILSDELNHASLVLGARLSGATIRIFKHNNMQSLEKLLKDAIVYGQPRTRRPWKKILILVEGIYSMEGSIVRLPEVIALKKKYKAYLYLDEAHSIGALGPTGRGVVEYFGLDPEDVDVMMGTFTKSFGASGGYIGGKKELIDYLRTHSHSAVYATSLSPPVVEQIITSMKCIMGQDGTSLGKECVQQLAENTRYFRRRLKEMGFIIYGNEDSPVVPLMLYMPAKIGAFGREMLKRNIGVVVVGFPATPIIESRARFCLSAAHTKEILDTALKEIDEVGDLLQLKYSRHRLVPLLDRPFDETTYEETED
chain 3: MAGMALARAWKQMSWFYYQYLLVTALYMLEPWERTVFNSMLVSIVGMALYTGYVFMPQHIMAILHYFEIVQ
modifications: pyridoxal 5'-phosphate (PLP) in aldimine linkage to Lys379
- stoichiometry N (cryo-EM structure [2]): 2
